Source: article PMC3515335, “CDK2 Regulates HIV-1 Transcription by Phosphorylation of CDK9 on Serine 90” (Retrovirology, 2012)

Target: T1, Flag-tagged CDK9 S90A (human, UniProt P50750 1-372, S90A)
T1 construct: also called Flag-CDK9 S90A
Test: co-IP; Flag-CDK9 (WT or S90A) precipitated with anti-Flag antibodies from lysates of 293T cells co-transfected with cyclin T1, 48 hrs post-transfection; whole cell lysis buffer (50 mM Tris-HCl pH 7.5, 0.5 M NaCl, 1% NP-40, 0.1% SDS); IP 2 hrs at 4°C in TNN buffer (50 mM Tris-HCl pH 7.5, 150 mM NaCl, 1% NP-40); immunoblot for Hexim1, CDK9 and cyclin T1
Conditions: partners not purified

T1 sequence (P50750 whole entry S90A): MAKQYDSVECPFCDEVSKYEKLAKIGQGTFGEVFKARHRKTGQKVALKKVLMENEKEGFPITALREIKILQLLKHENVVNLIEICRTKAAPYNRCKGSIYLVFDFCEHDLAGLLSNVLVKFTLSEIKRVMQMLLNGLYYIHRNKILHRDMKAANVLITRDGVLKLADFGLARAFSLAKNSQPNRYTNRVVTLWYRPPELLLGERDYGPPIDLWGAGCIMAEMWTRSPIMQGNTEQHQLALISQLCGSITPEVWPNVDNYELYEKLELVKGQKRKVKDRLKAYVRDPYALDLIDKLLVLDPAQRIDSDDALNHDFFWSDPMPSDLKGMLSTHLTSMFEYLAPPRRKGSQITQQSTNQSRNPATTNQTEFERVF

HEXIM1 co-precipitated, relative to WT CDK9: ~50 % less
B1: HEXIM1 (natural protein, human (endogenous in 293T), UniProt O94992 1-359, looked up)
chain: MAEPFLSEYQHQPQTSNCTGAAAVQEELNPERPPGAEERVPEEDSRWQSRAFPQLGGRPGPEGEGSLESQPPPLQTQACPESSCLREGEKGQNGDDSSAGGDFPPPAEVEPTPEAELLAQPCHDSEASKLGAPAAGGEEEWGQQQRQLGKKKHRRRPSKKKRHWKPYYKLTWEEKKKFDEKQSLRASRIRAEMFAKGQPVAPYNTTQFLMDDHDQEEPDLKTGLYSKRAAAKSDDTSDDDFMEEGGEEDGGSDGMGGDGSEFLQRDFSETYERYHTESLQNMSKQELIKEYLELEKCLSRMEDENNRLRLESKRLGGDDARVRELELELDRLRAENLQLLTENELHRQQERAPLSKFGD
notes: source: endogenous, 293T lysate
